Experimental data reported in patent US20250332297A1, “DLL3-SPECIFIC BINDING CONSTRUCTS AND THEIR USE IN RADIOTHERAPY” (MOLECULAR PARTNERS AG, priority 2024, published 2025).

What was measured:
mouse serum albumin = target: T1, mouse serum albumin (Mus musculus, UniProt P07724); test: SPR binding to mouse serum albumin (Example 1); details: immobilized MSA, 1:1 Langmuir, Table 2
T1 construct: purchased Sigma-Aldrich
Experimental: (§1) Similarly, a SPR assay was used to determine the binding kinetics to human or mouse serum albumin. […] All analytes (3-fold dilution ranging from 1000-12.35 nM) were injected in succession for 240 s (25 μl/min) and dissociation was recorded for 600 s (25 μl/min). […] The obtained SPR traces were used to determine the ankyrin repeat protein-serum albumin interaction parameters, summarized in Table 2.

[1] = Thermal stability by Circular Dichroism (CD) spectroscopy; format: physicochemical; details: CD at 222 nm, 20° C. to 90° C., 2 μM in PBS pH7.4; DARPins with C-terminal Cysteine-containing tag (SEQ ID NOs: 15, 16, 18)
Experimental: Labelling of proteins conjugated to a chelator with a radionuclide may require harsh conditions, including high temperatures. The thermal stability and the propensity to unfold/refold of 2D DARPins MAM279, MAM283 and MAM282 were assessed using Circular Dichroism (CD) spectroscopy.
Samples of the DARPins were diluted to 2 μM in PBS, pH7.4. The assessment was done using a Jasco J-815 spectrophotometer. The Tm (melting temperature) of the selected proteins was determined by CD as a parameter for thermal stability. In brief, the ellipticity was recorded at […] and a temperature range from 20° C. to 90° C. was applied followed by reverse scan to record the refolding behavior. The Tm of the selected ankyrin repeat protein constructs is the midpoint of the protein unfolding. Spectra from 190-250 nm were recorded before and after the temperature scan.

[2] = Pharmacokinetic analysis in WT BALBc mice (serum, ELISA); format: in vivo, mouse; details: natural lead-labelled DOTAM conjugate 1 mg/kg i.v., Tables 16, 17
Source text: The pharmacokinetic (PK) properties of lead-labelled DARPin (MAM160, MAM279, MAM282, MAM283) conjugates were investigated in mice, including to determine the terminal half-life (or serum half-life) of these conjugates.
In brief, DARPins MAM279, MAM283, MAM160 and MAM282 were conjugated to the chelator DOTAM, via a C-terminal Cysteine containing tag and a connector, as described in Example 3. The conjugates were then labelled with natural lead (Pb). The protein components of the conjugates corresponded to SEQ ID NOs: 15 to 18, respectively. These lead-labelled DARPin conjugates were injected i.v. at 1 mg/kg into WT BALBc mice. Serum was collected 2 min, 10 min, 30 min, 1 h, 4 h, 24 h, 48 h, and 72 h post-injection. DARPins were detected and measured by ELISA. The data were expressed as the DARPin concentration in serum (nmol/L).
In brief, lead-labelled MAM279 conjugate, as described in Example 13, was injected i. at 0.1 mg/kg or at 1 mg/kg into the tail vein of WT BALBc mice. Serum was collected 2 min, 10 min, 30 min, 1 h, 4 h, 24 h, 48 h, and 72 h post-injection for MAM279 conjugate injected at 1 mg/kg, and 2 min, 30 min, 4 h, 24 h, 30 h, 48 h, 72 h, 96 h, and 168 h post-injection for MAM279 conjugate injected at 0.1 mg/kg. DARPins were detected and measured by ELISA. The data were expressed as the DARPin concentration in serum (nmol/L).
In brief, natural lead-labelled MAM279 conjugate, as described in Example 13, was injected i.v. at different doses (0.001 mg/kg, 0.01 mg/kg, 0.1 mg/kg, or 1 mg/kg) into the tail vein of WT BALBc mice. Similarly, unconjugated Rova was injected iv. at 1 mg/kg into the tail vein of WT BALBc mice. Serum was collected 2 min, 10 min, 30 min, 1 h, 4 h, 24 h, 48 h, and 72 h post-injection for MAM279 conjugate injected at 1 mg/kg, and 2 min, 30 min, 4 h, 24 h, 30 h, 48 h, 72 h, 96 h, and 168 h post-injection for MAM279 conjugate injected at 0.1 mg/kg, 0.01 mg/kg and 0.001 mg/kg. Serum was collected 2 min, 30 min, 4 h, 24 h, 30 h, 48 h, 72 h, 96 h, and 168 h post-injection for Rova antibody injected at 1 mg/kg. DARPins and Rova were detected and measured by ELISA. Rova PK characteristics were calculated with time points between 4 h and 168 h and MAM279 conjugate PK characteristics were calculated with time points between 4 h and 72 h. The data were expressed as the DARPin or Rova concentration in serum (nmol/L). Results are shown in FIGS. 19A and 19B and Table 22.

human serum albumin = human serum albumin (Homo sapiens, UniProt P02768); test: SPR binding to human serum albumin (Example 1); parameters: purchased CSL; details: immobilized HSA, 1:1 Langmuir, Table 2
Experimental: as §1

T1 sequence (P07724 25-608): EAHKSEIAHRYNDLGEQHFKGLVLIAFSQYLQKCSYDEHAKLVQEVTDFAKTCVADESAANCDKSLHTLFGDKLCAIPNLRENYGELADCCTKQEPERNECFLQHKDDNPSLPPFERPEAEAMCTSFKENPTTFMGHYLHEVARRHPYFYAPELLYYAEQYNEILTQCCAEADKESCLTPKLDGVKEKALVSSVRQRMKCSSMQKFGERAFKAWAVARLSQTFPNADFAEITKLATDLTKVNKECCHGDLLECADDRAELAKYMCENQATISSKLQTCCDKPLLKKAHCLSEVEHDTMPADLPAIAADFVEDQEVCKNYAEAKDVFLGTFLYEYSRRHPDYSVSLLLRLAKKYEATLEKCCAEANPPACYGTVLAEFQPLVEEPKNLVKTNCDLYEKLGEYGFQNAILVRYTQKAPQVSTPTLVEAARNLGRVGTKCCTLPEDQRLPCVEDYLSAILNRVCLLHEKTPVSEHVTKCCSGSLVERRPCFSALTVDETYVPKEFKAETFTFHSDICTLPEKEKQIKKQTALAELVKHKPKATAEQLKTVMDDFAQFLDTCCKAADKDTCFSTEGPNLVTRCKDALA

B1: MAM283: Two domain (2D) ankyrin repeat protein: serum albumin-specific domain (SEQ ID NO: 7), PT linker, DLL3-specific domain (SEQ ID NO: 3) (protein)
chain: DLGKKLLEAARAGQDDEVRELLKAGADVNAKDYFSHTPLHLAARNGHLKIVEVLLKAGADVNAKDFAGKTPLHLAADAGHLEIVEVLLKAGADVNAQDIFGKTPADIAADAGHEDIAEVLQKAAGSPTPTPTTPTPTPTTPTPTPTGSDLGKKLLAAAADGQDDEVRELLQAGADVNAKDLFGYTPLHLAAWRGHLEIVEVLLEAGADVNAKDAAGETPLHLAAWFGHLEIVEVLLEAGADVNAQDVQGKTPADLAAKEGHEDIAEVLQQAA
modifications: Ankyrin repeat protein (MAM283)
For B1, the Kd (mouse serum albumin) was 507 nM, the “Koff MSA” value (mouse serum albumin) was 0.0378 s⁻¹ and the “Kon MSA” value (mouse serum albumin) was 74680 M⁻¹ s⁻¹. The “melting temperature (Tm)” value [1] was “about 82 °C”, the AUCINF_pred [2] was 14.4943 µM·h and the “AUC_% Back_Ext_pred” value [2] was 0%. For the same molecule, the “AUC_% Extrap_pred” value [2] was 2%, the AUClast [2] was 14.2436 µM·h and the CI_pred [2] was 2.3 mL/h/kg. The Cmax [2] was 1440 nM, the HL_Lambda_z [2] was 12.7 h and the Tmax [2] was 1.98 min. For the same molecule, the Vss_pred [2] was 0.035 L/kg, the Kd (human serum albumin) was 103 nM and the “Koff HSA” value (human serum albumin) was 0.00924 s⁻¹. The “Kon HSA” value (human serum albumin) was 89500 M⁻¹ s⁻¹.

B2: MAM282: Two domain (2D) ankyrin repeat protein: serum albumin-specific domain (SEQ ID NO: 7), PT linker, DLL3-specific domain (SEQ ID NO: 2) (protein)
chain: DLGKKLLEAARAGQDDEVRELLKAGADVNAKDYFSHTPLHLAARNGHLKIVEVLLKAGADVNAKDFAGKTPLHLAADAGHLEIVEVLLKAGADVNAQDIFGKTPADIAADAGHEDIAEVLQKAAGSPTPTPTTPTPTPTTPTPTPTGSDLGKKLLAAAREGQDDEVRELLKAGADVNAKDIWGQTPLHIAAWFGHLEIVEVLLKAGADVNAKDQTGHTPLHLAAKFGHLEIVEVLLKAGADVNAQDLLGRTPADLAAEEGHEDIAEVLQKAA
modifications: Ankyrin repeat protein (MAM282)
For B2, the Kd (mouse serum albumin) was 335 nM, the “Koff MSA” value (mouse serum albumin) was 0.0354 s⁻¹ and the “Kon MSA” value (mouse serum albumin) was 105900 M⁻¹ s⁻¹. The “melting temperature (Tm)” value [1] was “above 90 °C”, the AUCINF_pred [2] was 8.435 µM·h and the “AUC_% Back_Ext_pred” value [2] was 0%. The “AUC_% Extrap_pred” value [2] was 17%, the AUClast [2] was 7.0389 µM·h and the CI_pred [2] was 4 mL/h/kg. The Cmax [2] was 461 nM, the HL_Lambda_z [2] was 28.5 h and the Tmax [2] was 1.98 min. For the same molecule, the Vss_pred [2] was 0.153 L/kg, the Kd (human serum albumin) was 74.3 nM and the “Koff HSA” value (human serum albumin) was 0.00889 s⁻¹. The “Kon HSA” value (human serum albumin) was 120000 M⁻¹ s⁻¹.
